From PMC9653487, “Structural basis for mechanotransduction in a potassium-dependent mechanosensitive ion channel” (Nature Communications, 2022)

How the values were obtained:
[1] = target: the molecule itself; assay: cryo-EM structure; single-particle cryo-EM of EcMscK G924S in 0.02% GDN, 20 mM Tris-HCl pH 8.0, 150 mM NaCl or 150 mM KCl (datasets combined); refined with C7 symmetry; closed, intermediate and open classes
[2] = target: the molecule itself; assay: cryo-EM structure; single-particle cryo-EM of WT EcMscK in 0.02% GDN, 20 mM Tris-HCl pH 8.0, 150 mM NaCl; refined with C7 symmetry

Row | Protein | stoichiometry N [1] | binding result [2]
1 | E. coli MscK (EcMscK) G924S gain-of-function mutant channel (natural protein, UniProt P77338 34-1120, looked up, E. coli mechanosensitive channel MscK, 1120 amino acids, full length, with the point mutation G924S made by site-directed mutagenesis; Homoheptamer; closed, intermediate and open conformations came from the same sample; A few residues of the PreScission site are left at the C-terminus after cleavage; The deposited models lack unresolved parts, and some segments are polyalanine; also called G924S …) RASSNGDLPTKADLQAQLDSLNKQKDLSAQDKLVQQDLTDTLATLDKIDRIKEETVQLRQKVAEAPEKMRQATAALTALSDVDNDEETRKILSTLSLRQLETRVAQALDDLQNAQNDLASYNSQLVSLQTQPERVQNAMYNASQQLQQIRSRLDGTDVGETALRPSQKVLMQAQQALLNAEIDQQRKSLEGNTVLQDTLQKQRDYVTANSARLEHQLQLLQEAVNSKRLTLTEKTAQEAVSPDEAARIQANPLVKQELEINQQLSQRLITATENGNQLMQQNIKVKNWLERALQSERNIKEQIAVLKGSLLLSRILYQQQQTLPSADELENMTNRIADLRLEQFEVNQQRDALFQSDAFVNKLEEGHTNEVNSEVHDALLQVVDMRRELLDQLNKQLGNQLMMAINLQINQQQLMSVSKNLKSILTQQIFWVNSNRPMDWDWIKAFPQSLKDEFKSMKITVNWQKAWPAVFIAFLAGLPLLLIAGLIHWRLGWLKAYQQKLASAVGSLRNDSQLNTPKAILIDLIRALPVCLIILAVGLILLTMQLNISELLWSFSKKLAIFWLVFGLCWKVLEKNGVAVRHFGMPEQQTSHWRRQIVRISLALLPIHFWSVVAELSPLHLMDDVLGQAMIFFNLLLIAFLVWPMCRESWRDKESHTMRLVTITVLSIIPIALMVLTATGYFYTTLRLAGRWIETVYLVIIWNLLYQTVLRGLSVAARRIAWRRALARRQNLVKEGAEGAEPPEEPTIALEQVNQQTLRITMLLMFALFGVMFWAIWSDLITVFSYLDSITLWHYNGTEAGAAVVKNVTMGSLLFAIIASMVAWALIRNLPGLLEVLVLSRLNMRQGASYAITTILNYIIIAVGAMTVFGSLGVSWDKLQWLAAALSVGLSFGLQEIFGNFVSGLIILFERPVRIGDTVTIGSFSGTVSKIRIRATTITDFDRKEVIIPNKAFVTERLINWSLTDTTTRLVIRLGVAYGSDLEKVRKVLLKAATEHPRVMHEPMPEVFFTAFGASTLDHELRLYVRELRDRSRTVDELNRTIDQLCRENDINIAFNQLEVHLHNEKGDEVTEVKRDYKGDDPTPAVG | 7 | –
2 | E. coli MscK (EcMscK), full-length wild-type channel (natural protein, UniProt P77338 34-1120, looked up, E. coli mechanosensitive channel MscK, 1120 amino acids, full length, codon-optimized synthetic DNA; Homoheptamer; A few residues of the PreScission site are left at the C-terminus after cleavage; also called WT EcMscK; WT channel; not shown: GFP, C-terminal, cleaved; His10, C-terminal, cleaved) RASSNGDLPTKADLQAQLDSLNKQKDLSAQDKLVQQDLTDTLATLDKIDRIKEETVQLRQKVAEAPEKMRQATAALTALSDVDNDEETRKILSTLSLRQLETRVAQALDDLQNAQNDLASYNSQLVSLQTQPERVQNAMYNASQQLQQIRSRLDGTDVGETALRPSQKVLMQAQQALLNAEIDQQRKSLEGNTVLQDTLQKQRDYVTANSARLEHQLQLLQEAVNSKRLTLTEKTAQEAVSPDEAARIQANPLVKQELEINQQLSQRLITATENGNQLMQQNIKVKNWLERALQSERNIKEQIAVLKGSLLLSRILYQQQQTLPSADELENMTNRIADLRLEQFEVNQQRDALFQSDAFVNKLEEGHTNEVNSEVHDALLQVVDMRRELLDQLNKQLGNQLMMAINLQINQQQLMSVSKNLKSILTQQIFWVNSNRPMDWDWIKAFPQSLKDEFKSMKITVNWQKAWPAVFIAFLAGLPLLLIAGLIHWRLGWLKAYQQKLASAVGSLRNDSQLNTPKAILIDLIRALPVCLIILAVGLILLTMQLNISELLWSFSKKLAIFWLVFGLCWKVLEKNGVAVRHFGMPEQQTSHWRRQIVRISLALLPIHFWSVVAELSPLHLMDDVLGQAMIFFNLLLIAFLVWPMCRESWRDKESHTMRLVTITVLSIIPIALMVLTATGYFYTTLRLAGRWIETVYLVIIWNLLYQTVLRGLSVAARRIAWRRALARRQNLVKEGAEGAEPPEEPTIALEQVNQQTLRITMLLMFALFGVMFWAIWSDLITVFSYLDSITLWHYNGTEAGAAVVKNVTMGSLLFAIIASMVAWALIRNLPGLLEVLVLSRLNMRQGASYAITTILNYIIIAVGAMTVFGSLGVSWDKLQWLAAALSVGLGFGLQEIFGNFVSGLIILFERPVRIGDTVTIGSFSGTVSKIRIRATTITDFDRKEVIIPNKAFVTERLINWSLTDTTTRLVIRLGVAYGSDLEKVRKVLLKAATEHPRVMHEPMPEVFFTAFGASTLDHELRLYVRELRDRSRTVDELNRTIDQLCRENDINIAFNQLEVHLHNEKGDEVTEVKRDYKGDDPTPAVG | – | binds
